Experimental data: US20260265373A1 (INMAGENE PTE, published 2026)
Substitutions are numbered along the chain they refer to. One block for each binder: values may come before it.

Columns and labels:
[1] = molecular target: T1, human ILT7-his protein (human, UniProt P59901 28-446); assay: SPR, Biacore 8K, antibody captured on the chip, human ILT7-his as analyte, 25° C.
T1 construct: also called human ILT7 protein
Text: (§1) Methods: The binding affinity of the humanized cmAb12 antibody, hu-cmAb12, was further measured by surface plasmon resonance (SPR) technology with Biacore 8K. As used herein, “hu-cmAb12” refers to a specific antibody clone variant of the Hu12-04 antibody of Examples 8 and 9. The hu-cmAb12 antibody includes a VL having the amino acid sequence of SEQ ID NO: 19, a VH having the amino acid sequence of SEQ ID NO: 26, and a CH having the amino acid sequence of SEQ ID NO: 55. hu-cmAb12 or Tab1 were immobilized on CM-5 chip. The assay was performed at 25° C. and the running buffer was 1×HEPES (10 mM HEPES, 150 mM NaCl, 3 mM EDTA) with 0.005% Tween-20, pH 7.4. Diluted antibodies were captured on the sensor chip through Fc capture method. Human ILT7-his was used as the analyte, and running buffer was used as the dissociation phase. Similarly, ELISA was conducted as described above. An isotype control antibody and reference anti-ILT7 antibody Tab1 were used as controls.

[2] = molecular target: T2, full-length human ILT7 on cells (human, UniProt P59901 24-499); assay: flow cytometry on 293F-human ILT7 cells
T2 construct: also called CHOK1 cells expressing human ILT7
T2 sequence (P59901 other isoform, or with tags, fused parts or gaps): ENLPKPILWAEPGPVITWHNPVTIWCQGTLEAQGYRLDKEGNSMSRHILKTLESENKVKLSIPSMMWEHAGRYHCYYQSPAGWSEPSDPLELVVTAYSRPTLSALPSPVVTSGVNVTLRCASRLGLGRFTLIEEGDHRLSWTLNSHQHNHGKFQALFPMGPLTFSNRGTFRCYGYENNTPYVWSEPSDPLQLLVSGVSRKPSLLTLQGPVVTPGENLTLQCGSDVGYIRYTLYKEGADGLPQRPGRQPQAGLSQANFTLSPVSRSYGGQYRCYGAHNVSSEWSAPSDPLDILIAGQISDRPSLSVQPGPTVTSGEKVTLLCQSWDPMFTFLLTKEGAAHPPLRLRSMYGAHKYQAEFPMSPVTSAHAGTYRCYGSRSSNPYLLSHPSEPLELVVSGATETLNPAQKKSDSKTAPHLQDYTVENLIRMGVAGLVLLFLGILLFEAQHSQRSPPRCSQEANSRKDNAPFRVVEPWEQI
Method: (§2) Methods: The binding affinities of chimeric anti-ILT7 antibodies identified from the screening, including cmAb12, to human ILT7 or cynomolgus ILT7 expressed on cell membrane were measured by flow cytometry. Vectors containing coding sequences for full-length cynomolgus ILT7 (SEQ ID NO: 6) and hFcεRiγ (SEQ ID NO: 7) were generated. […] Both cell lines were seeded, resuspended, and incubated with the chimeric antibodies at 4° C. for 1 hour. Cells were then washed with cold FACS buffer (PBS+2% FBS), resuspended, and incubated with secondary antibody at 4° C. for 1 hour. hIgG1 and Tab1 were used as controls.
(§3) Cells were washed with cold FACS buffer (PBS+2% FBS) by centrifuging, followed by addition of secondary antibodies, and incubation at 4° C. for 1 hour. An isotype control antibody and reference anti-ILT7 antibody Tab1 were used as negative and positive controls. The concentration-MFI curves of FACs were then determined.

[3] = molecular target: T1, human ILT7-his protein; assay: SPR (Biacore 8K), antibody captured through Fc, human ILT7-his as analyte, 25 C
Text: as §1

[4] = molecular target: T3, full-length cynomolgus ILT7 on cells (cynomolgus, UniProt P59901 24-499 (human entry)); assay: flow cytometry on CHOK1-cynomolgus ILT7 cells
T3 construct: also called CHOK1-cynomolgus ILT7 cells
T3 sequence (P59901 other isoform, or with tags, fused parts or gaps limits assumed): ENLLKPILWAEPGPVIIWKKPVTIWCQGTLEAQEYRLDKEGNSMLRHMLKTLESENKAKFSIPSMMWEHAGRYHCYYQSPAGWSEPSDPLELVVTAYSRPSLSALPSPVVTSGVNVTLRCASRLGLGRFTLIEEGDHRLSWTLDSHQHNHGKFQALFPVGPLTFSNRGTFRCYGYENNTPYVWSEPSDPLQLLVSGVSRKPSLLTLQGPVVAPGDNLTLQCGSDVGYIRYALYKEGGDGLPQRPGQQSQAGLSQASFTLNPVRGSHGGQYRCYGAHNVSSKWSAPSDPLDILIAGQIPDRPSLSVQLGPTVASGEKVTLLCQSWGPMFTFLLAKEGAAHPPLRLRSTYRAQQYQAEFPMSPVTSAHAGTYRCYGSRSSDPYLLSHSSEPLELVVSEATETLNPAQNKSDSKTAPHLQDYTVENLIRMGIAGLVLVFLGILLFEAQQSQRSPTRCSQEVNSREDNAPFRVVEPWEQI
Method: as §2, §3

[5] = molecular target: T2, full-length human ILT7 on cells; assay: cell-based or functional assay
[6] = molecular target: T1, human ILT7-his protein; assay: ELISA, plate coated with human ILT7-his
Method: Methods: The binding of the chimeric anti-ILT7 antibodies identified from the screening, including cmAb12, to human ILT7-his protein was measured by ELISA, along with an isotype antibody hIgG1 as negative control and a reference anti-ILT7 antibody Tab1. 96-well ELISA plates were coated with human ILT7-his in PBS (2 μg/ml) overnight at 4° C. Chimeric antibodies were added to the wells and co-incubated with the coating protein at 37° C. for 1 hour, followed by the addition of secondary HRP labelled antibody. After incubation at 37° C. for 1 more hour, TMB substrate was added to wells and incubated at RT for 15 min. 1 N HCl was added to terminate the reactions. The absorbance at 450 nm was measured with a microplate reader.
Methods: The binding affinity of the humanized cmAb12 antibody, hu-cmAb12, was further measured by surface plasmon resonance (SPR) technology with Biacore 8K. As used herein, “hu-cmAb12” refers to a specific antibody clone variant of the Hu12-04 antibody of Examples 8 and 9. The hu-cmAb12 antibody includes a VL having the amino acid sequence of SEQ ID NO: 19, a VH having the amino acid sequence of SEQ ID NO: 26, and a CH having the amino acid sequence of SEQ ID NO: 55. hu-cmAb12 or Tab1 were immobilized on CM-5 chip. The assay was performed at 25° C. and the running buffer was 1×HEPES (10 mM HEPES, 150 mM NaCl, 3 mM EDTA) with 0.005% Tween-20, pH 7.4. […]

[7] = molecular target: T4, LILRB4/ILT3 (UniProt Q8NHJ6 22-259); assay: ELISA, plate coated with 1 µg/ml LILR superfamily protein
Method: (§4) Methods: The binding specificities of the chimeric antibodies, including cmAb12, for ILT7 over its related 10 LILR superfamily member proteins were evaluated by ELISA. Plates coated with 1 μg/ml LILR superfamily protein as indicated were incubated with chimeric antibodies at 37° C. for 1 hour, followed by the secondary antibody.

[8] = molecular target: T5, LILRB3/ILT5 (UniProt O75022 24-443, limits assumed); assay: as above
Method: as §4

[9] = molecular target: T6, LILRA1 (UniProt O75019 17-461, limits assumed); assay: as above
T6 sequence (O75019 17-461 limits assumed): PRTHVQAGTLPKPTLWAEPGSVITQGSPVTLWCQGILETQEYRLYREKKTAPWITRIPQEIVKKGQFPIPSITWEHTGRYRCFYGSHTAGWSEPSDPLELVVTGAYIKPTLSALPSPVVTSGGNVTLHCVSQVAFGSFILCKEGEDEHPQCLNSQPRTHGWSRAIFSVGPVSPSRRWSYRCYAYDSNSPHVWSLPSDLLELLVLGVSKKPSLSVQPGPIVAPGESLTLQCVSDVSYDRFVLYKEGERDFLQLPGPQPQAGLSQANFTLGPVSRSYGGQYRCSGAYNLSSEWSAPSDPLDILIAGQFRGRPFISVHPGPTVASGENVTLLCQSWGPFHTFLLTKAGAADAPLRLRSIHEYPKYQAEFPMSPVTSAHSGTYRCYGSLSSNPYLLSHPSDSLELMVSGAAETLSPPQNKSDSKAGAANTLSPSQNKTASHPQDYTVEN
Method: as §4

[10] = molecular target: T7, LILRA2/ILT1 (UniProt Q8N149 24-449, limits assumed); assay: as above
T7 sequence (Q8N149 24-449 limits assumed): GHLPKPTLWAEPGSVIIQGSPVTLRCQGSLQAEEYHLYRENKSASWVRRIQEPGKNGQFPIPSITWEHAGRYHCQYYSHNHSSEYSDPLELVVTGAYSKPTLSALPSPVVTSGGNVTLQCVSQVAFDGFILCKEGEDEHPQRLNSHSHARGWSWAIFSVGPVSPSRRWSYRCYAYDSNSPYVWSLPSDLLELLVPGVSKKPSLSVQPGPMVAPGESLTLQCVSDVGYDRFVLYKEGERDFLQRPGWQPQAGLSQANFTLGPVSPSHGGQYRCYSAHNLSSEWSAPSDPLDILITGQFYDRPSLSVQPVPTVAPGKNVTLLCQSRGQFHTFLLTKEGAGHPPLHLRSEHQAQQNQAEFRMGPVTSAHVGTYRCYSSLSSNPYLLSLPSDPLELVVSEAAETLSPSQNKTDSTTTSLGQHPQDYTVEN
Method: as §4

[11] = molecular target: T8, LILRB1/ILT2 (UniProt Q8NHL6 24-461, limits assumed); assay: as above
T8 sequence (Q8NHL6 24-461 limits assumed): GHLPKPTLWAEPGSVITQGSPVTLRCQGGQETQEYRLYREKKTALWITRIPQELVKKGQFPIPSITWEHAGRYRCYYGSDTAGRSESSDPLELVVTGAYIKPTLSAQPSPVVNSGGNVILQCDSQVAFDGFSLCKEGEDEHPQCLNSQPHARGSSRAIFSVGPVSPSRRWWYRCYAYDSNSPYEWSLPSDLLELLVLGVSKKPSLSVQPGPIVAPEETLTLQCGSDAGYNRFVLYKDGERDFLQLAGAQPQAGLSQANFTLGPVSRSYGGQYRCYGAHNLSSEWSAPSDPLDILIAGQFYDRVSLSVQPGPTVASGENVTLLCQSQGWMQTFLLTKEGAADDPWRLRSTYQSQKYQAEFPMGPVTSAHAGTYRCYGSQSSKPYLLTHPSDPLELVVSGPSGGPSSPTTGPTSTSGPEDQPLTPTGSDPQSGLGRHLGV
Method: as §4

[12] = molecular target: T9, LILRA6/ILT8 (UniProt Q6PI73 24-447, limits assumed); assay: as above
T9 sequence (Q6PI73 24-447 limits assumed): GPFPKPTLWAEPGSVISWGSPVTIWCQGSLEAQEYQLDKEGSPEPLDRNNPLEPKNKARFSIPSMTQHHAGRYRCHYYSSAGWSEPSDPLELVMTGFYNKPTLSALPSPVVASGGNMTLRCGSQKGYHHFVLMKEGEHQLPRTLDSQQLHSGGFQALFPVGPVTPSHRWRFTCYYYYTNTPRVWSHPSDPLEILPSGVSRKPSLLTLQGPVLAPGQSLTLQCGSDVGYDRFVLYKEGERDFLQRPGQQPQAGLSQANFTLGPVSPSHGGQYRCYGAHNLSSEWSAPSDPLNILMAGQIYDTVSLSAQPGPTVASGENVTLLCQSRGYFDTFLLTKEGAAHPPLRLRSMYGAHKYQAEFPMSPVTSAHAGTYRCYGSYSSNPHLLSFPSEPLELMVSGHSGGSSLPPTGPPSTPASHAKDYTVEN
Method: as §4

[13] = molecular target: T10, LILRB2/ILT4 (UniProt Q8N423 22-460, limits assumed); assay: as above
T10 sequence (Q8N423 22-460 limits assumed): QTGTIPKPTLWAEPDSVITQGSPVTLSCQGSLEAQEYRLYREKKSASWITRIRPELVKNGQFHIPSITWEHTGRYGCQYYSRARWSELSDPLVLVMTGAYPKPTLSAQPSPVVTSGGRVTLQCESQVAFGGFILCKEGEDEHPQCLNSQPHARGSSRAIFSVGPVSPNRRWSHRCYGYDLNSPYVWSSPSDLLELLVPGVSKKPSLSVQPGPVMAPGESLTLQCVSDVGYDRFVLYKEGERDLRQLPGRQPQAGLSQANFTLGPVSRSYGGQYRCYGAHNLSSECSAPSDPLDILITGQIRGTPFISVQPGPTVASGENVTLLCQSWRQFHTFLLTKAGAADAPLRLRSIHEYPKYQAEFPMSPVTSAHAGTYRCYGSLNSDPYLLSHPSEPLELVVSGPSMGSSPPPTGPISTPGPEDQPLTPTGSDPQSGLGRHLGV
Method: as §4

[14] = molecular target: T11, LILRA5/ILT11 (UniProt A6NI73 42-268, limits assumed); assay: as above
T11 sequence (A6NI73 42-268 limits assumed): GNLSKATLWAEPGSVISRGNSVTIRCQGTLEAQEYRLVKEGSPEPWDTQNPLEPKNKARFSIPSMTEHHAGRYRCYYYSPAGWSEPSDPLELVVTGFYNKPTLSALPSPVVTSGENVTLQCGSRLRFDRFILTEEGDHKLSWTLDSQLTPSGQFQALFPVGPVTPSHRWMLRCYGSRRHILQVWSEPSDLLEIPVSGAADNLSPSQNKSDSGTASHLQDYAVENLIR
Method: as §4

[15] = molecular target: T12, LILRA3/ILT6 (UniProt Q8N6C8 24-439); assay: as above
T12 sequence (Q8N6C8 24-439 limits assumed): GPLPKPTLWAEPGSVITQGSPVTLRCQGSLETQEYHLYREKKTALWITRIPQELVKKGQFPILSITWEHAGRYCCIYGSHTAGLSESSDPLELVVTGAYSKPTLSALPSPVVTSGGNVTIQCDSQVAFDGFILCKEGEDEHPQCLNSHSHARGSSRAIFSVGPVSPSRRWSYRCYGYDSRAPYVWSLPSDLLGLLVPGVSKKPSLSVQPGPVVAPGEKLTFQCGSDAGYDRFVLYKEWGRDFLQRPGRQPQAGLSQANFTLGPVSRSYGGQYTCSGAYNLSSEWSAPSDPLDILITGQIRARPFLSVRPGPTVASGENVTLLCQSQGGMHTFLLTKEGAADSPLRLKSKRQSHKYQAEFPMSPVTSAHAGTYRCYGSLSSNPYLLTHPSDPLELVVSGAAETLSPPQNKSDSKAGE
Method: as §4

[16] = molecular target: T13, LILB5 (UniProt O75023 24-458, limits assumed); assay: as above
T13 construct: also called LILRB5 (printed as LILB5)
T13 sequence (O75023 24-458 limits assumed): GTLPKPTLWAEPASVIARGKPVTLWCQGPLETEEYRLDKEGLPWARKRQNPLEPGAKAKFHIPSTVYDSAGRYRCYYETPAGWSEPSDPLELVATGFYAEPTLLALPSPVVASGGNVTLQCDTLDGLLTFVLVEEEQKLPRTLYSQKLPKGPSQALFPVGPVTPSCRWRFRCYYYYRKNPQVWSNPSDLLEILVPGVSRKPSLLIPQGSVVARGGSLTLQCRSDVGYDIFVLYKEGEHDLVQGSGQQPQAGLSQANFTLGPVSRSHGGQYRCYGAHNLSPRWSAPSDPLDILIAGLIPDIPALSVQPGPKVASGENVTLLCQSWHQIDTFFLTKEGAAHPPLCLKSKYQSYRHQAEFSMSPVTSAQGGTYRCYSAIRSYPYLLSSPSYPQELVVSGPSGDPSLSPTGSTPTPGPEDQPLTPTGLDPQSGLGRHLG
Method: as §4

[17] = molecular target: T4, LILRB4/ILT3; assay: ELISA, plate coated with 1 µg/ml LILR protein
Method: as §4

[18] = molecular target: T5, LILRB3/ILT5; assay: ELISA, plate coated with 1 µg/ml LILR protein
Method: as §4

[19] = molecular target: T6, LILRA1; assay: ELISA, plate coated with 1 µg/ml LILR protein
Method: as §4

[20] = molecular target: T7, LILRA2/ILT1; assay: ELISA, plate coated with 1 µg/ml LILR protein
Method: as §4

[21] = molecular target: T8, LILRB1/ILT2; assay: ELISA, plate coated with 1 µg/ml LILR protein
Method: as §4

[22] = molecular target: T9, LILRA6/ILT8; assay: ELISA, plate coated with 1 µg/ml LILR protein
Method: as §4

[23] = molecular target: T10, LILRB2/ILT4; assay: ELISA, plate coated with 1 µg/ml LILR protein
Method: as §4

[24] = molecular target: T11, LILRA5/ILT11; assay: ELISA, plate coated with 1 µg/ml LILR protein
Method: as §4

[25] = molecular target: T12, LILRA3/ILT6; assay: ELISA, plate coated with 1 µg/ml LILR protein
Method: as §4

[26] = molecular target: T13, LILB5; assay: ELISA, plate coated with 1 µg/ml LILR protein
Method: as §4

[27] = molecular target: T3, full-length cynomolgus ILT7 on cells; assay: flow cytometry on CHOK1-cynomolgus ILT7 cells, MFI
[28] = molecular target: T3, full-length cynomolgus ILT7 on cells; assay: flow cytometry on CHOK1-cynomolgus ILT7 cells, MFI; remark: listed apart in the source
[29] = molecular target: T2, full-length human ILT7 on cells; assay: flow cytometry on 293F-human ILT7 cells, MFI
[30] = molecular target: T2, full-length human ILT7 on cells; assay: flow cytometry on 293F-human ILT7 cells, MFI; remark: listed apart in the source
[31] = molecular target: T1, human ILT7-his protein; assay: ELISA, OD450; the x axis is labelled 'human ILT7 Conc (µg/ml)'
[32] = molecular target: T1, human ILT7-his protein; assay: ELISA, plate coated with human ILT7-his, antibody titrated, OD450

T1 sequence (P59901 other isoform, or with tags, fused parts or gaps): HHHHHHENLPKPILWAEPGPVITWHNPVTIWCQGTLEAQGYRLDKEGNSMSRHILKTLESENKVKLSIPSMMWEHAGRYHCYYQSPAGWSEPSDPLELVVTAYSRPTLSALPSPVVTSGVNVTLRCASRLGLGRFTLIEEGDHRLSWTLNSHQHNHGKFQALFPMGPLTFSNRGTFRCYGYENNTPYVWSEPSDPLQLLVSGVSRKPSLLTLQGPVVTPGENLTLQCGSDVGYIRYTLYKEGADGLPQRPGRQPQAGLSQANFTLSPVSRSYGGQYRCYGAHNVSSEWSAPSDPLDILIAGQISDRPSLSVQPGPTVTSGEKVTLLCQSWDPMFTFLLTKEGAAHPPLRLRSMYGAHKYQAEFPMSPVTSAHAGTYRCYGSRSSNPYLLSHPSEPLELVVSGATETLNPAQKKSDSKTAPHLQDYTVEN

Kd [1]: 111 nM
EC50 [2]: 0.343 nM
koff [3]: 0.106 s⁻¹
kon [3]: 959000 M⁻¹ s⁻¹
EC50 [4]: 1.65 nM
macrophage-dependent ADCP activity, EC50 (Donor 1) [5]: 0.881 nM
macrophage-dependent ADCP activity, EC50 (Donor 2) [5]: 2.17 nM
macrophage-dependent ADCP activity, EC50 (Donor 3) [5]: 1.58 nM
EC50 [6]: 0.0791 µg/mL
B1: humanized antibody hu-cmAb12 (antibody, V domains shown)
VH: QVQLVQSGAEVKKPGASVKVSCKASGYTFTEYPMHWVRQAPGQRLEWMGMIYTDTGEPAYAEEFKGRVTITRDTSASTAYMELSSLRSEDTAVYYCARELGQNFDYWGQGTTVTVSS
VL: DIVLTQSPASLAVSPGQRATITCRASQSVSTSSYSYMHWYQQKPGQPPKLLIYYASNLESGVPARFSGSGSGTDFTLTINPVEAEDTANYYCQHSWDIPYTFGQGTKLEIK
modifications: Example 12: the antibody was conjugated with the dye Alexa488, which the letters do not carry.
notes: also called antibody clone variant of Hu12-04
NK-dependent ADCC activity (% Cytotoxicity), EC50 [5]: 0.0038 nM
neutrophil-dependent ADCC activity (% Cytotoxicity), EC50 [5]: 16.1 nM

binding result [7]: no binding
binding result [8]: no binding
binding result [9]: no binding
binding result [10]: no binding
binding result [11]: no binding
binding result [12]: no binding
binding result [13]: no binding
binding result [14]: no binding
binding result [15]: no binding
binding result [16]: no binding
EC50 [2]: 0.312 nM
EC50 [4]: 0.939 nM
ELISA OD 450 nM [17]: 0.1 OD450
ELISA OD 450 nM [18]: 0.1 OD450
ELISA OD 450 nM [19]: 0.1 OD450
ELISA OD 450 nM [20]: 0.2 OD450
ELISA OD 450 nM [21]: 0.1 OD450
ELISA OD 450 nM [22]: 0.1 OD450
ELISA OD 450 nM [23]: 0.3 OD450
ELISA OD 450 nM [24]: 0.1 OD450
ELISA OD 450 nM [25]: 0.1 OD450
ELISA OD 450 nM [26]: 0.1 OD450
EC50 [6]: 0.0751 nM
B2: chimeric antibody Ab12 (cmAb12) (antibody, human IgG1, V domains shown)
VH: QIQLVQSGPELKKPGETVKISCKASGYTFTEYPMHWVKQAPGKGFKWMGMIYTDTGEPAYAEEFKGRFAFSLETSASTAYLQINNLKNEDTATYFCVRELGQNFDYWGQGTTLTVSS
VL: B1 VL with P15L, T22S, Y53K, T78N, N80H, A84E, N89T, Q104G
notes: also called chimeric Ab12

EC50 [27]: 2.46 nM
EC50 [28]: 1.1 nM
Kd [3]: 71.3 nM
koff [3]: 0.0278 s⁻¹
kon [3]: 390000 M⁻¹ s⁻¹
EC50 [29]: 0.383 nM
EC50 [30]: 0.579 nM
EC50 [31]: 0.0398 µg/mL
EC50 [32]: 0.0682 nM
B3: benchmark antibody daxdilimab (Tab1) (antibody, V domains shown)
VH: QVQLQQSGAEVKKPGASVKVSCKASGYTFTSYGISWVRQAPGQGLEWMGWISAYNGNTNYAQKLQGRVTMTIDTSTSTAYMELRSLRSDDTAVYYCARNGLWGWDSDAFDIWGRGTLVTVSS
VL: QSALTQPASVSGSPGQSITISCTGTSSDVGGYNYVSWYQQHPGKAPKLMIYDVSNRPSGVSNRFSGSKSGNTASLTISGLQAEDEADYYCSSYTSSSTVVFGGGTKVTVL
NK-dependent ADCC activity (% Cytotoxicity), EC50 [5]: 0.0103 nM
